How the values were obtained:
HLA-DRB1*03:01 = biological target: T1, HLA-DRB1*03:01 (Homo sapiens, UniProt P01903+P01911, A100K/A102G/A103R/A169T/F55Y/I96L/K41T/L162R/M171V/P40S/Q125H/Q178H/Q39Y/R42S/S66N/T106N/T262R/W38E/Y61H); assay: Peptide/HLA-DR binding, competitive ELISA; conditions: ratio IC50 of peptide / IC50 of reference peptide MT2-16, lower = higher affinity, ratio 20 or less high, 20–100 moderate, three independent experiments
T1 construct: HLA-DR heterodimers were purified from homozygous Epstein–Barr virus B-lymphoblastoid cell lines; host or cells: homozygous EBV B-lymphoblastoid cell line
Protocol: (§1) HLA-DR heterodimers were purified from homozygous Epstein–Barr virus B-lymphoblastoid cell lines (HPA Culture Collections, Salisbury, UK) by affinity chromatography with the monomorphic HLA-DRα monoclonal antibody, L243.[29],[30] Binding of the SseB peptide panel to the HLA-DR molecules HLA-DRB1*01:01, 03:01, 04:01, 07:01, 09:01, 11:01, 12:02, 15:01, 15:02 was assessed by competitive ELISA, as previously described, using an automated workstation.[29],[30] We evaluated the peptide concentration able to prevent binding of 50% of the labelled peptide (IC50). Data were expressed as relative affinity: ratio of the IC50 of the peptide to the IC50 of the reference peptide, which is a high binder to the HLA class II molecule. Unlabelled forms of the biotinylated peptides were used as reference peptides.

HLA-DRB1*09:01 = biological target: T2, HLA-DRB1*09:01 (Homo sapiens, UniProt P01903+P01911, A100R/A103E/D57H/D86V/F55Y/F60I/F76Y/I96F/K127E/L162R/M171V/P40D/Q125H/Q99R/R33Q/R42F/S133A/S66N/T210M/V115G/W38K/Y107V/Y59G/Y89S); assay: Peptide/HLA-DR binding, competitive ELISA; conditions: ratio IC50 of peptide / IC50 of reference peptide CTP 427–441, lower = higher affinity, ratio 20 or less high, 20–100 moderate, three independent experiments
T2 construct: HLA-DR heterodimers were purified from homozygous Epstein–Barr virus B-lymphoblastoid cell lines; host or cells: homozygous EBV B-lymphoblastoid cell line
Protocol: as §1

HLA-DRB1*12:02 = HLA-DRB1*12:02 (Homo sapiens, UniProt P01903+P01911, A100R/A169T/D57E/D86V/F55L/H45Y/I96F/K41T/L162R/M171V/P40S/Q125H/Q178H/Q39Y/Q99D/R42G/S66L/T262R/V114A/V67L/W38E/Y59H/Y61H/Y89S); assay: Peptide/HLA-DR binding, competitive ELISA; conditions: ratio IC50 of peptide / IC50 of reference peptide TFR 141–155, lower = higher affinity, ratio 20 or less high, 20–100 moderate, three independent experiments
Protocol: as §1

HLA-DRB1*15:02 = biological target: T3, HLA-DRB1*15:02 (Homo sapiens, UniProt P01903+P01911, V115G); assay: Peptide/HLA-DR binding, competitive ELISA; conditions: ratio IC50 of peptide / IC50 of reference peptide TFR 607–620, lower = higher affinity, ratio 20 or less high, 20–100 moderate, three independent experiments
T3 construct: HLA-DR heterodimers were purified from homozygous Epstein–Barr virus B-lymphoblastoid cell lines; host or cells: homozygous EBV B-lymphoblastoid cell line
Protocol: as §1

HLA-DRB1*01:01 = HLA-DRB1*01:01 (Homo sapiens, UniProt P01903+P01911, A100R/D57E/F55L/F60I/F76Y/I96L/L162R/M171V/P40L/Q125E/R42F/V115G/Y59C); conditions: competitive ELISA; ratio IC50 of peptide / IC50 of reference peptide HA 306–318; lower = higher affinity; ratio 20 or less high, 20–100 moderate; three independent experiments
HLA-DRB1*04:01 = HLA-DRB1*04:01 (Homo sapiens, UniProt P01903+P01911, A100K/A169T/F76Y/I96L/K127E/L162R/M171V/N62H/P40V/Q125Y/R42H/S133A/S149N/S66Y/V115G/V209L/W38E); conditions: competitive ELISA; ratio IC50 of peptide / IC50 of reference peptide HA 306–318; lower = higher affinity; ratio 20 or less high, 20–100 moderate; three independent experiments
HLA-DRB1*07:01 = HLA-DRB1*07:01 (Homo sapiens, UniProt P01903+P01911, A100R/A102G/A103Q/D57E/D86V/E43K/F76Y/K127E/L162R/M171V/P40G/Q125H/Q99D/R33Q/R42Y/R54Q/S133A/S66F/T210M/V115G/Y107V/Y59L/Y89S); conditions: competitive ELISA; ratio IC50 of peptide / IC50 of reference peptide HA 306–318; lower = higher affinity; ratio 20 or less high, 20–100 moderate; three independent experiments

Substance | Relative binding affinity of peptide to HLA-DR molecules DRB1*0301 (HLA-DRB1*03:01) | Relative binding affinity of peptide to HLA-DR molecules DRB1*0901 (HLA-DRB1*09:01) | Relative binding affinity of peptide to HLA-DR molecules DRB1*1202 (HLA-DRB1*12:02) | Relative binding affinity of peptide to HLA-DR molecules DRB1*1502 (HLA-DRB1*15:02) | Relative binding affinity of peptide to HLA-DR molecules DRB1*0101 (HLA-DRB1*01:01) | Relative binding affinity of peptide to HLA-DR molecules DRB1*0401 (HLA-DRB1*04:01) | Relative binding affinity of peptide to HLA-DR molecules DRB1*0701 (HLA-DRB1*07:01)
2: SseB overlapping library peptide, residues 11–30 (QNPIVFKNSFGVSNADTGSQ) [Peptide 2] | > 119 | 10 | 59 | 5 | 300 | 9 | 14
11: SseB overlapping library peptide, residues 101–120 (EDVIKYMRDNGILIDGMTID) [Peptide 11] | > 119 | 34 | 8 | 37 | 61 | 17 | 2
AVLTQLTGLISKWGEISSMIAQKTYS [Peptide 18] | > 119 | 21 | 4 | 63 | 2 | 2 | 12

— article PMC4212957, “The serodominant secreted effector protein of Salmonella, SseB, is a strong CD4 antigen containing an immunodominant epitope presented by diverse HLA class II alleles” (Immunology, 2014)
